*1 amine or outer side, *2 acyl side, *3 side chain or, on linkers, in order; H or OH if unused. Where no end group is shown, it is not given here. Side-chain parts run from the residue outwards. [ ]: non-standard residue; d: D form. The star is where a group is joined. C20 diacid = O=C(O)CCCCCCCCCCCCCCCCCCC(=O)*; γGlu = O=C(O)[C@H](CCC(=O)[*:2])N[*:1]; αMeL = CC(C)C[C@](C)(N)C(=O)O; αMeK = C[C@](N)(CCCCN)C(=O)O; AEEA = NCCOCCOCC(=O)O; Aib = CC(C)(N)C(=O)O
T1: human GIP receptor (human), P48546
T1 chain: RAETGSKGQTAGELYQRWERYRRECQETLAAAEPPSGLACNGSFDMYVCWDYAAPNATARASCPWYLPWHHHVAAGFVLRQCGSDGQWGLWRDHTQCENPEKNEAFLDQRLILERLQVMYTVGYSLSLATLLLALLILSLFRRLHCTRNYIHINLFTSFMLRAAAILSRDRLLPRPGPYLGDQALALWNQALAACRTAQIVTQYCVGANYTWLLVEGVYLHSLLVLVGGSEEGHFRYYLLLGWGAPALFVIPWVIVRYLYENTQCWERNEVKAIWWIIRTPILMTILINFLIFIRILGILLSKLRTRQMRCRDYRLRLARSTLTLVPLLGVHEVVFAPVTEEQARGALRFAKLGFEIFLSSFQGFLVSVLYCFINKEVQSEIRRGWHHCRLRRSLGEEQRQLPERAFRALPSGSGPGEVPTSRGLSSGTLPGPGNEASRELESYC

T2: human GLP-1 receptor (human), P43220
T2 chain: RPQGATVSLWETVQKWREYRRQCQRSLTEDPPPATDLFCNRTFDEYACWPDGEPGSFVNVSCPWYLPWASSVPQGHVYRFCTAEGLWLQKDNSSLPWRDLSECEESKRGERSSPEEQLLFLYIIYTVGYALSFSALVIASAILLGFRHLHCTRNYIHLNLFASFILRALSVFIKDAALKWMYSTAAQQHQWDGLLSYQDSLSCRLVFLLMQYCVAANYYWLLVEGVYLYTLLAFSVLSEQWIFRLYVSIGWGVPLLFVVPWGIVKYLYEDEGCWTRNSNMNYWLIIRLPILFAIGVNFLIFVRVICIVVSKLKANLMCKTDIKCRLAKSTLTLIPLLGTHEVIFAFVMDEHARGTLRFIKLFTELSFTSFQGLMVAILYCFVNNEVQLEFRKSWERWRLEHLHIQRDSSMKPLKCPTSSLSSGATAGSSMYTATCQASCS


Experiments:
[1] = biological target: T1, human GIP receptor (human), P48546; assay: cell-based or functional assay
[2] = biological target: human glucagon receptor (human), P47871; assay: cell-based or functional assay
Chain of human glucagon receptor (human), P47871 (P47871 26-477): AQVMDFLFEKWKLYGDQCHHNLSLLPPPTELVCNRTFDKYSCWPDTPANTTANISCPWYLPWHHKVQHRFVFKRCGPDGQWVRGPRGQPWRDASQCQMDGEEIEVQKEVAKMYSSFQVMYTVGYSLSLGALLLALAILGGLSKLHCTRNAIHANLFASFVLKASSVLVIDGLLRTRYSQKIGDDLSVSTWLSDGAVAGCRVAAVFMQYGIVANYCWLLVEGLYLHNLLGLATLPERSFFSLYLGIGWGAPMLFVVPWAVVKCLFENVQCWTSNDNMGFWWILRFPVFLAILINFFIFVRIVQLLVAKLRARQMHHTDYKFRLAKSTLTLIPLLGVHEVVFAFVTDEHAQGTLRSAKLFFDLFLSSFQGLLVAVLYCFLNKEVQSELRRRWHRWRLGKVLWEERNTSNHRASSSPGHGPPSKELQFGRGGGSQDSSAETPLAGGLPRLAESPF

[3] = biological target: T2, human GLP-1 receptor (human), P43220; assay: cell-based or functional assay
[4] = biological target: T1, human GIP receptor (human), P48546; assay: radioligand competition SPA, HEK293 membranes
[5] = biological target: human glucagon receptor (human), P47871; assay: radioligand competition SPA, HEK293 membranes
[6] = biological target: T2, human GLP-1 receptor (human), P43220; assay: radioligand competition SPA, HEK293 membranes

Row | Binder | cAMP EC50 (0.1% casein) [1] [nM] | cAMP EC50 (FBS and BSA present) [1] [nM] | cAMP EC50 (0.1% casein) [2] [nM] | cAMP EC50 (FBS and BSA present) [2] [nM] | cAMP EC50 (0.1% casein) [3] [nM] | cAMP EC50 (FBS and BSA present) [3] [nM] | Ki [4] [nM] | Ki [5] [nM] | Ki [6] [nM]
1 | Y[Aib]QGTFTSDYSILLDKK([AEEA-γGlu-C20 diacid])AQ[Aib]AFIEYLLA[Aib]GPSSGAPPPS-NH2 (N-terminus assumed; SMILES CC[C@H](C)[C@H](NC(=O)[C@H](Cc1ccccc1)NC(=O)[C@H](C)NC(=O)C(C)(C)NC(=O)[C@H](CCC(N)=O)NC(=O)[C@H](C)NC(=O)[C@H](CCCCNC(=O)COCCOCCNC(=O)CC[C@H](NC(=O)CCCCCCCCCCCCCCCCCCC(=O)O)C(=O)O)NC(=O)[C@H](CCCCN)NC(=O)[C@H](CC(=O)O)NC(=O)[C@H](CC(C)C)NC(=O)[C@H](CC(C)C)NC(=O)[C@@H](NC(=O)[C@H](CO)NC(=O)[C@H](Cc1ccc(O)cc1)NC(=O)[C@H](CC(=O)O)NC(=O)[C@H](CO)NC(=O)[C@@H](NC(=O)[C@H](Cc1ccccc1)NC(=O)[C@@H](NC(=O)CNC(=O)[C@H](CCC(N)=O)NC(=O)C(C)(C)NC(=O)[C@@H](N)Cc1ccc(O)cc1)[C@@H](C)O)[C@@H](C)O)[C@@H](C)CC)C(=O)N[C@@H](CCC(=O)O)C(=O)N[C@@H](Cc1ccc(O)cc1)C(=O)N[C@@H](CC(C)C)C(=O)N[C@@H](CC(C)C)C(=O)N[C@@H](C)C(=O)NC(C)(C)C(=O)NCC(=O)N1CCC[C@H]1C(=O)N[C@@H](CO)C(=O)N[C@@H](CO)C(=O)NCC(=O)N[C@@H](C)C(=O)N1CCC[C@H]1C(=O)N1CCC[C@H]1C(=O)N1CCC[C@H]1C(=O)N[C@@H](CO)C(N)=O) [Example 4] | 0.0648 | 1.55 | 0.0674 | 2.49 | 0.18 | 10.4 | 0.0374 | 2.55 | 3.54
2 | Y[Aib]QGTFTSDYSILLDKK([AEEA-AEEA-γGlu-C20 diacid])AQ[αMeK]AFIEYLLEGGPSSGAPPPS-NH2 (N-terminus assumed; SMILES CC[C@H](C)[C@H](NC(=O)[C@H](Cc1ccccc1)NC(=O)[C@H](C)NC(=O)[C@](C)(CCCCN)NC(=O)[C@H](CCC(N)=O)NC(=O)[C@H](C)NC(=O)[C@H](CCCCNC(=O)COCCOCCNC(=O)COCCOCCNC(=O)CC[C@H](NC(=O)CCCCCCCCCCCCCCCCCCC(=O)O)C(=O)O)NC(=O)[C@H](CCCCN)NC(=O)[C@H](CC(=O)O)NC(=O)[C@H](CC(C)C)NC(=O)[C@H](CC(C)C)NC(=O)[C@@H](NC(=O)[C@H](CO)NC(=O)[C@H](Cc1ccc(O)cc1)NC(=O)[C@H](CC(=O)O)NC(=O)[C@H](CO)NC(=O)[C@@H](NC(=O)[C@H](Cc1ccccc1)NC(=O)[C@@H](NC(=O)CNC(=O)[C@H](CCC(N)=O)NC(=O)C(C)(C)NC(=O)[C@@H](N)Cc1ccc(O)cc1)[C@@H](C)O)[C@@H](C)O)[C@@H](C)CC)C(=O)N[C@@H](CCC(=O)O)C(=O)N[C@@H](Cc1ccc(O)cc1)C(=O)N[C@@H](CC(C)C)C(=O)N[C@@H](CC(C)C)C(=O)N[C@@H](CCC(=O)O)C(=O)NCC(=O)NCC(=O)N1CCC[C@H]1C(=O)N[C@@H](CO)C(=O)N[C@@H](CO)C(=O)NCC(=O)N[C@@H](C)C(=O)N1CCC[C@H]1C(=O)N1CCC[C@H]1C(=O)N1CCC[C@H]1C(=O)N[C@@H](CO)C(N)=O) [Example 8] | 0.114 | 2.23 | 0.12 | 6.24 | 0.117 | 9.39 | 0.0958 | 30.4 | 29.4
3 | Y[Aib]QGTFTSDYSI[αMeL]LDKK([AEEA-γGlu-C20 diacid])AQHAFIEYLLEGGPSSGAPPPS-NH2 [Example 10] | 0.0928 | 4.3 | 0.123 | 8.42 | 0.143 | 19.3 | 0.118 | 7.37 | 12
4 | Y[Aib]QGTFTSDYSI[αMeL]LDKK([AEEA-AEEA-γGlu-C20 diacid])AQHAFIEYLLEGGPSSGAPPPS-NH2 [Example 7] | 0.0798 | 4.38 | 0.18 | 14.2 | 0.109 | 15.5 | 0.11 | 16.3 | 21.4
5 | Y[Aib]QGTFTSDYSI[αMeL]LDKK([γGlu-γGlu-C20 diacid])AQHAFIEYLLEGGPSSGAPPPS-NH2 (N-terminus assumed; SMILES CC[C@H](C)[C@H](NC(=O)[C@H](Cc1ccccc1)NC(=O)[C@H](C)NC(=O)[C@H](Cc1c[nH]cn1)NC(=O)[C@H](CCC(N)=O)NC(=O)[C@H](C)NC(=O)[C@H](CCCCNC(=O)CC[C@H](NC(=O)CC[C@H](NC(=O)CCCCCCCCCCCCCCCCCCC(=O)O)C(=O)O)C(=O)O)NC(=O)[C@H](CCCCN)NC(=O)[C@H](CC(=O)O)NC(=O)[C@H](CC(C)C)NC(=O)[C@](C)(CC(C)C)NC(=O)[C@@H](NC(=O)[C@H](CO)NC(=O)[C@H](Cc1ccc(O)cc1)NC(=O)[C@H](CC(=O)O)NC(=O)[C@H](CO)NC(=O)[C@@H](NC(=O)[C@H](Cc1ccccc1)NC(=O)[C@@H](NC(=O)CNC(=O)[C@H](CCC(N)=O)NC(=O)C(C)(C)NC(=O)[C@@H](N)Cc1ccc(O)cc1)[C@@H](C)O)[C@@H](C)O)[C@@H](C)CC)C(=O)N[C@@H](CCC(=O)O)C(=O)N[C@@H](Cc1ccc(O)cc1)C(=O)N[C@@H](CC(C)C)C(=O)N[C@@H](CC(C)C)C(=O)N[C@@H](CCC(=O)O)C(=O)NCC(=O)NCC(=O)N1CCC[C@H]1C(=O)N[C@@H](CO)C(=O)N[C@@H](CO)C(=O)NCC(=O)N[C@@H](C)C(=O)N1CCC[C@H]1C(=O)N1CCC[C@H]1C(=O)N1CCC[C@H]1C(=O)N[C@@H](CO)C(N)=O) [Example 9] | 0.0522 | 4.17 | 0.139 | 6.32 | 0.0931 | 9.76 | 0.126 | 8.27 | 11.5
6 | Y[Aib]QGTFTSDYSI[αMeL]LDKK([AEEA-AEEA-γGlu-C20 diacid])AAQAFIEYLLE[Aib]GPSSGAPPPS-NH2 (N-terminus assumed; SMILES CC[C@H](C)[C@H](NC(=O)[C@H](Cc1ccccc1)NC(=O)[C@H](C)NC(=O)[C@H](CCC(N)=O)NC(=O)[C@H](C)NC(=O)[C@H](C)NC(=O)[C@H](CCCCNC(=O)COCCOCCNC(=O)COCCOCCNC(=O)CC[C@H](NC(=O)CCCCCCCCCCCCCCCCCCC(=O)O)C(=O)O)NC(=O)[C@H](CCCCN)NC(=O)[C@H](CC(=O)O)NC(=O)[C@H](CC(C)C)NC(=O)[C@](C)(CC(C)C)NC(=O)[C@@H](NC(=O)[C@H](CO)NC(=O)[C@H](Cc1ccc(O)cc1)NC(=O)[C@H](CC(=O)O)NC(=O)[C@H](CO)NC(=O)[C@@H](NC(=O)[C@H](Cc1ccccc1)NC(=O)[C@@H](NC(=O)CNC(=O)[C@H](CCC(N)=O)NC(=O)C(C)(C)NC(=O)[C@@H](N)Cc1ccc(O)cc1)[C@@H](C)O)[C@@H](C)O)[C@@H](C)CC)C(=O)N[C@@H](CCC(=O)O)C(=O)N[C@@H](Cc1ccc(O)cc1)C(=O)N[C@@H](CC(C)C)C(=O)N[C@@H](CC(C)C)C(=O)N[C@@H](CCC(=O)O)C(=O)NC(C)(C)C(=O)NCC(=O)N1CCC[C@H]1C(=O)N[C@@H](CO)C(=O)N[C@@H](CO)C(=O)NCC(=O)N[C@@H](C)C(=O)N1CCC[C@H]1C(=O)N1CCC[C@H]1C(=O)N1CCC[C@H]1C(=O)N[C@@H](CO)C(N)=O) [Example 5] | 0.0757 | 4.86 | 0.0226 | 1.47 | 0.147 | 22.3 | 0.179 | 0.422 | 36.7
7 | Y[Aib]QGTFTSDYSI[αMeL]LDKK([AEEA-AEEA-γGlu-C20 diacid])AAQAFIEYLLEGGPSSGAPPPS-NH2 [Example 6] | 0.274 | 7.41 | 0.0282 | 1.99 | 0.142 | 21.2 | 0.249 | 0.835 | 36.7
